# According to patent publication US20200239597A1, “AN ANTI-APOPTOTIC FUNCTION OF PKM2 AND INTRACELLULARLY EXPRESSED SCFV ANTIBODIES” (La Jolla Institute for Allergy and Immunology, priority 2017, published 2020):
# B1: IB5: intracellularly expressed single-chain antibody (scFv) specific for PKM2, SEQ ID NO: 2; also made as monovalent recombinant scFv in E. coli (protein)
# scFv: MAQVQLVETGPGLVKPSETLSLRCTVSGGSFDNYYWNWIRQPPGKGLEYIGYVFPSTGATNYNPSLGSRVTISLDTSKNQFSLTLTSVTTADTAIYYCVRSGHDLWTGSTWFDPWGQWTTVTVSSGGGGSGGGGSGGGGSEIVLTQSPGTLSLSPGERATLSCRASQSVSSSYLAWYQQKPGQAPRLLIYGASSRATGIPDRFSGSGSGTDFTLTISRLEPEDIAVYYCQQRSNWPRTFGQGTKVEIKRGLGGLASVDYKDDDDK
# modifications: artificial intrabody clone 5
# notes: also made as monovalent recombinant scFv in E. coli
# Columns and labels:
# U2OS cells = test: Clonogenic rescue from BimS-induced death, U2OS; type: cell-based
# MDA-MB231 = test: Clonogenic rescue from BimS-induced death, MDA-MB231; type: cell-based; conditions: parental MDA-MB231
# Experimental: Control or IB5-expressing cells were transfected with BimS cDNA. The plates were fixed and stained with crystal violet after 12 days and the total areas of colonies were measured. Mean, SD and P values were calculated from 3 individual plates.
# 293T cells [1] = test: Protection from death induced by transient expression of tBid; type: cell-based, human; conditions: surviving cells counted after 72 h
# Experimental: FIG. 2B is a non-limiting graph representation of a transfection assay to assess the effect of IB5 in cells transfected with pro-apoptotic proteins BimS and tBid encoding cDNA. […] 293T cells were transfected treated with […] tBid or BimS cDNA. Surviving cells were counted after 72 h.
# 293T cells [2] = test: siRNA silencing of PKM2, rescue from BimS killing; type: cell-based, human; conditions: 30 nM PKM2-specific siRNA
# Experimental: 5×10^5 cells were incubated per well for 12 h, then cells were either mock-transfected, transfected with 30 nM PKM2-specific siRNA (si M2), or transfected with NF-kB p50-specific siRNA (si p50). After a further 36-h incubation, samples of the same siRNAs were added along with 4 μg of BimS cDNA in fresh medium. Viable cells were counted after another 48-h incubation.
# Untreated or IB5-infected 293T cells (5×10^5 per well) were seeded into 6-well plates (Falcon) and transfected with 30 nM siRNA. Lipofectamine™ 2000 (Invitrogen, Carlsbad, Calif., USA) was used for transient transfection according to the manufacturer's protocol. After a 30-h incubation, fresh medium containing 30 nM siRNA and 4 μg/ml BimS expression plasmid was added. Cell viability assay was assayed after a further 36-h incubation. The PKM2-siRNA and control siRNA were purchased from Dharmacon (SiGENOME SMART™ pool hPKM2, Si156, and ONTARGETplus™ non-targeting siRNA #2) (Goldberg and Sharp, 2012).
# [3] = target: T1, pyruvate kinase M2 (PKM2) (Homo sapiens, UniProt P14618); test: Target protein immunoprecipitation (FLAG pull-down, mass spectrometry, immunoblot); type: binding; conditions: Triton X-100 extracts of 293T cells, anti-FLAG beads
# T1 construct: some intrabodies precipitated specific cellular proteins; endogenous in cells; host or cells: HEK293T (293T)
# Experimental: FIG. 1 C is a photograph of a non-limiting SDS-PAGE gel with silver stain from an immunoprecipitation assay using antibodies encoded by DNA sequences isolated from FIG. 1B. […] Intrabodies that rescued cells from BimS-induced death were chosen for pull-down analysis as described in Methods. Left panel: Triton™-X-100 (1%) cell extracts were incubated with anti-FLAG beads, then proteins eluted with 3×FLAG peptide and separated by SDS-PAGE with silver stain. Specific bands are marked with dots; some bands (e.g. at 37 and 70 kD) are nonspecific. […] The bands near 25 kD are the scFv polypeptides, whose expression levels varied.
# Flag-tagged intrabody was introduced along with a tandem Strep-tag by PCR into the same lentiviral vector used for selection. 293T cells infected with the intrabody lentivirus were incubated at 30° C. for 72 h as described above. After washing with cold PBS, 5×10^8 cells were lysed for 15 minutes on ice in lysis buffer (50 mM Tris HCl, pH 7.4, 150 mM NaCl, 1 mM EDTA, 1% Triton™ X-100). Cell lysates were clarified by centrifugation for 15 minutes at 4° C. at 16,000×g. The total protein content of the soluble fraction was quantified using the BCA assay. For pull-down experiments, 10 mg of protein lysate was incubated with 200 al of EZview™ Red anti-FLAG® M2 Affini-ty Gel (Sigma-Aldrich) for 2 h at 4° C. Beads were washed 3 times in wash buffer (50 mM Tris HCl, pH 7.4, 150 mM NaCl, 1 mM EDTA, 0.1% Triton X-100). Elution was performed under native conditions by competition with 3×FLAG peptide following the manufacturer's protocol. Eluates were used for the second step purification using Strep-Tactin Superflow Plus™ [Qiagen], following the manufacturer's instructions. The final two-step purified protein was used for SDS-PAGE analysis. Bands of interest were cut out from the gel and subjected to in-gel digestion with trypsin (Promega, Fitchburg, Wis., USA) followed by MALDI TOF/TOF mass spectrometry analysis (Biomolecular and Proteomics Mass Spectrometry Facility, University of California at San Diego).
# WT PKM2 [4] = target: T2, WT PKM2 (Homo sapiens, UniProt P14618); test: Blue native gel electrophoresis of recombinant proteins, WT PKM2; type: binding
# T2 construct: His (N); made in house; host or cells: Escherichia coli BL21(DE3)
# Experimental: Left: A monovalent form of scFv 5, produced in E. coli, induced tetramer formation in WT PKM2 along with a bandshift whose magnitude was dependent on the input amount of scFv 5. […] Reaction volume was 20 μl.
# Because glucose metabolism can influence cell survival (Fulda and Debatin, 2007; Moley and Mueckler, 2000; Munoz-Pinedo et al., 2012), The present inventors asked whether IB5 could rescue cells simply through stimulating PKM2's glycolytic activity. First, to analyze the antibody's interaction with PKM2, the present inventors produced monovalent scFv 5 and PIKM2 as recombinant proteins in E. coli and analyzed mixtures of these proteins, by blue native gel electrophoresis (FIG. 3A).
# PKM1 = PKM1 (Homo sapiens, UniProt P14618); test: Blue native gel electrophoresis of recombinant proteins, PKM1; type: binding
# WT PKM2 [5] = target: T2, WT PKM2; test: Pyruvate kinase assay (Kinase-Glo Plus), WT PKM2; type: biochemical; conditions: PKM2 at 50 nM; ADP and PEP as substrates
# Experimental: (§1) Activity was measured by Kinase-Glo® Plus Luminescent Kinase Assay kit (promega), using ADP and PEP as substrates), with PKM2 at 50 nM. Shown are values with the basal activity of PKM2 alone subtracted out.
# (§2) Pyruvate kinase activity was measured by using Kinase-Glo® Plus Luminescent Kinase Assay kit (Promega). 50-100 nM of purified WT or mutant PKM2 was added in 100 μl assay buffer containing 50 mM Tris pH7.5, 100 mM KCl, 10 mM MgCl2, 200 μM PEP, 200 μM ADP, and 3% DMSO. After a 15-min incubation, Kinase-Glo Plus™ reagent (Promega Corporation, Madison, Wis., USA) was added, according to the manufacturer's instructions. In some cases, 0-40 μM fructose 1,6-bisphosphate (FBP) and 0-150 nM scFv 5 were added.
# PKM2 (K422R) = target: T3, PKM2 (K422R) (Homo sapiens, UniProt P14618, K422R); test: Pyruvate kinase assay, PKM2 (K422R); type: biochemical
# T3 construct: His; made in house; host or cells: Escherichia coli BL21(DE3) (stated generally for WT and mutant PKM2)
# Experimental: as §1, §2
# [6] = tested on: endogenous PKM2, Bim EL and L isoforms; test: Expression of endogenous PKM2 and Bim isoforms in 293T cells; type: cell-based, human
# T2 sequence (P14618 whole entry): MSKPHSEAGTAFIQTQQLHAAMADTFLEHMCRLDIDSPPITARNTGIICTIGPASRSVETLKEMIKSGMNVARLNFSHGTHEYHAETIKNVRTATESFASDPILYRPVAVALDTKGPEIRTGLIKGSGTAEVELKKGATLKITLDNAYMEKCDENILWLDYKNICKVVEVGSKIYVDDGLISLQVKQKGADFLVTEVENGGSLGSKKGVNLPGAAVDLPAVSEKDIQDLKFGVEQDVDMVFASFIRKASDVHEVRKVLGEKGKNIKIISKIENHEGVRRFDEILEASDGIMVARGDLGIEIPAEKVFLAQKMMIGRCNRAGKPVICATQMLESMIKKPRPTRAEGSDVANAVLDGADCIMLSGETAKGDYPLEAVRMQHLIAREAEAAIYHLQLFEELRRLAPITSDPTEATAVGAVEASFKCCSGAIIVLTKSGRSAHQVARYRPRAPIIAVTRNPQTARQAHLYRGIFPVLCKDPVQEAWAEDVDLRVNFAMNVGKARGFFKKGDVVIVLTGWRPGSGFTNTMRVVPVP
# T3 sequence (P14618 whole entry K422R): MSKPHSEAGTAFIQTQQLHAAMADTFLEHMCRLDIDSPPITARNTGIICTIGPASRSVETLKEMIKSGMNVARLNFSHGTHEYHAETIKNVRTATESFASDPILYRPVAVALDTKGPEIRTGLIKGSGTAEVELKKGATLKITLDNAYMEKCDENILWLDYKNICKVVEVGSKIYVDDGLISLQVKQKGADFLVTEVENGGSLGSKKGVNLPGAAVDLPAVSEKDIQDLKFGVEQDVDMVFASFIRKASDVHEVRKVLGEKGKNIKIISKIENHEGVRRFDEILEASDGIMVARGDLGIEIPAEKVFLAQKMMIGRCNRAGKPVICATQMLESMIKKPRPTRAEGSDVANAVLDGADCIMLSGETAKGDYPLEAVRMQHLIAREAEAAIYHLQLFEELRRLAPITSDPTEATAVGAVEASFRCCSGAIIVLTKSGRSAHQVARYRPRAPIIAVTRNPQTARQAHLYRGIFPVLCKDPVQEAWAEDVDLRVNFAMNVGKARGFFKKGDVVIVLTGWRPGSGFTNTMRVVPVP
# T1 sequence (P14618 whole entry): as the sequence (P14618 whole entry) above
# Chain of PKM1 (P14618 1-531 isoform P14618-2, species assumed): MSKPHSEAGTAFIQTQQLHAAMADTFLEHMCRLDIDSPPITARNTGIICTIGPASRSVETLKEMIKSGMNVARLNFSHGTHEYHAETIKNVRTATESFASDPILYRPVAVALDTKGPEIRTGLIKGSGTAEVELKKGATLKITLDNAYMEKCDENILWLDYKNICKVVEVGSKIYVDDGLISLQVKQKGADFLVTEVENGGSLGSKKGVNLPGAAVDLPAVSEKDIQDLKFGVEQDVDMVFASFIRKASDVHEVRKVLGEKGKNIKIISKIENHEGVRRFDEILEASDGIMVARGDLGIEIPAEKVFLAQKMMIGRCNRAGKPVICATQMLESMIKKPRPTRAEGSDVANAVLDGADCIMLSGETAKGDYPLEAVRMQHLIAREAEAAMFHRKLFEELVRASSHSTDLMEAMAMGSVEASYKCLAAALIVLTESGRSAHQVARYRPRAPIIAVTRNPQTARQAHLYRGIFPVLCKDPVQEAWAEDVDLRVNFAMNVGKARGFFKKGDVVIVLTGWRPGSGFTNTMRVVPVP
molecule,measurement,setting,value
B1,protection from BimS-induced apoptosis (clonogenicity),U2OS cells,substantially protected
same,rescue from BimS-induced cell death,MDA-MB231,failed to rescue
same,protection from death induced by transient expression of tBid,293T cells [1],protected from death
same,ability to rescue cells from BimS killing after PKM2 silencing,293T cells [2],substantial reduction
same,protein pulled down from cell extracts,[3],pulled down a 55-kD protein now identified as pyruvate kinase M2
same,tetramer formation of WT PKM2,WT PKM2 [4]; blue native gel,strongly increased the tetrameric PIKMV2 species
same,direct binding to PKM2,WT PKM2 [4]; in vitro experiments,bound directly to PKM2
same,shift of electrophoretic mobility of recombinant PKM1,PKM1,failed to shift the electrophoretic mobility
same,glycolytic (pyruvate kinase) activity of WT PKM2,WT PKM2 [5],stimulated PKM2's glycolytic activity in a concentration-dependent manner
same,glycolytic activity of PKM2 (K422R),PKM2 (K422R),stimulated the glycolytic activity of PKM2 (K422R) in a concentration-dependent manner
same,activity of PKM2 (K422R) compared with WT PKM2,PKM2 (K422R); high concentrations of scFv 5,at least equal to that of WT PKM2
same,expression of endogenous Bim EL and L isoforms,[6],no effect
same,expression of endogenous PKM2,[6],no effect
